The text below walks through data of patent US20240368263A1 (PROMETHEUS BIOSCIENCES, published 2024).

Where a chain is given by its changes, count along the chain named.

B1: Clone 3-17L Fab (Fab, V domains shown)
VH: QVQLVQSGAEVKKPGASVKVSCKASGFDIQDTYMHWVRQAPGQGLEWMGRIDPASGHLKYDPKFQGRVTITRDTSASTVYMELSSLRSEDTAVYYCARSGGLPDMWGQGTTVTVSS
VL: EIVLTQSPGTLSLSPGERATLSCRASSSVSYMYWYQQKPGQAPRLLIYATSNLASGIPDRFSGSGSGTDFTLTISRLEPEDFAVYYCQQWQGNPRTFGGGTKLEIK
notes: Fab
B2: Clone E1 Fab (Fab, V domains shown)
VH: B1 VH with D52E, G66E, I70M, A76T, M105K
VL: B1 VL with R24G, Q91E
notes: Fab
B3: Clone A1 Fab (Fab, V domains shown)
VH: B1 VH with G66N, I70M, A76T, M105K
VL: B1 VL with R24G, Q91E
notes: Fab
B4: Clone H2-5 Fab (Fab, V domains shown)
VH: B1 VH with L58Y, G66V, V68A, R72T, V79A, M81L, E82Q, M105F
VL: B1 VL with Q91S
notes: Fab; also called Clone 112-5
B5: Clone H2-2 Fab (Fab, V domains shown)
VH: B1 VH with L58S, G66V, V68A, R72T, V79A, M81L, E82Q, M105F
VL: B1 VL with Q91S
notes: Fab; also called Clone 112-2
B6: Clone 16 Fab (Fab, V domains shown)
VH: B1 VH with L58V, Y60I, G66V, I70M, A76T
VL: B1 VL
notes: Fab; also called Clone 16L
B7: Clone H3-1 Fab (Fab, V domains shown)
VH: B1 VH with L58T, V68A, R72T, V79A, M81L, E82Q, M105L
VL: B1 VL with Q91S
notes: Fab
B8: Clone 17L-1 Fab (Fab, V domains shown)
VH: B1 VH with G66R, I70M, A76T
VL: B1 VL
notes: Fab
B9: Clone 3-17L V-A Fab (Fab, V domains shown)
VH: B1 VH with V79A
VL: B1 VL
notes: Fab
B10: clone 16-2 Fab (12835 framework variant) (Fab, V domains shown)
VH: B1 VH with V20L, L58T, G66V, I70M, A76T, A97S, M105V
VL: B1 VL with F70Y, Q91S
notes: Fab
B11: clone 27 Fab (12835 framework variant) (Fab, V domains shown)
VH: B1 VH with L58T, G66V, I70M, R72T, A76T, A97S, M105V
VL: B1 VL with L45P, I57V, F70Y, Q91S
notes: Fab
B12: clone 19-5 Fab (12835 framework variant) (Fab, V domains shown)
VH: B1 VH with L58T, G66V, I70M, A76T, A97S, M105V
VL: B1 VL with I57V, F70Y, Q91S
notes: Fab
B13: clone 22 Fab (12835 framework variant) (Fab, V domains shown)
VH: B1 VH with V20L, L58T, G66V, I70M, R72T, A76T, A97S, M105V
VL: B1 VL with A19V, L21M, L45P, L46W, I57V, Q91S
notes: Fab
B14: clone 19 Fab (12835 framework variant) (Fab, V domains shown)
VH: B1 VH with V20L, L58T, G66V, I70M, R72T, A76T, A97S, M105V
VL: B1 VL with F70Y, Q91S
notes: Fab
B15: clone 21 Fab (12835 framework variant) (Fab, V domains shown)
VH: B1 VH with V20L, L58T, G66V, I70M, R72T, A76T, A97S, M105V
VL: B1 VL with L46W, F70Y, Q91S
notes: Fab
B16: clone 17-2 Fab (12835 framework variant) (Fab, V domains shown)
VH: B1 VH with V20L, L58T, G66V, I70M, A76T, A97S, M105V
VL: B1 VL with I57V, Q91S
notes: Fab
B17: clone 26 Fab (12835 framework variant) (Fab, V domains shown)
VH: B1 VH with L58T, G66V, I70M, R72T, A76T, A97S, M105V
VL: B1 VL with L45P, L46W, I57V, F70Y, Q91S
notes: Fab
B18: clone 20-7 Fab (12835 framework variant) (Fab, V domains shown)
VH: B1 VH with V20L, L58T, G66V, I70M, A76T, M105V
VL: B1 VL with I57V, F70Y, Q91S
notes: Fab

TRAIL/TNFSF10 (R&D Systems, cat. no. 375-TL/CF), sequence (P50591 114-281 limits assumed): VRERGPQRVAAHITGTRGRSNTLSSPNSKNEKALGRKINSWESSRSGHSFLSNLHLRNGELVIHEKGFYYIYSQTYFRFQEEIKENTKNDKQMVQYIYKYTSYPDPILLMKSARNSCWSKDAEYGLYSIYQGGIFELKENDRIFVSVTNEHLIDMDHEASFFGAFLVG
LIGHT/TNFSF14 (R&D Systems, cat. no. 664-LI/CF), sequence (O43557 74-240 limits assumed): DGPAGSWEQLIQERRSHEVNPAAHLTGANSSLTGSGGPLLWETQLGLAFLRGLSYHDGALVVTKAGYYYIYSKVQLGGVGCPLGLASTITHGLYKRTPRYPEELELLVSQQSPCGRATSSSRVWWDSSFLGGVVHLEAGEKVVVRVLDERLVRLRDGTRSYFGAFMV

The first experiment concerns the target T1, membrane-associated human TL1A on transfected HEK293 cells (human, UniProt O95150 1-251).
T1 construct: whole, on cells
T1 sequence (looked up): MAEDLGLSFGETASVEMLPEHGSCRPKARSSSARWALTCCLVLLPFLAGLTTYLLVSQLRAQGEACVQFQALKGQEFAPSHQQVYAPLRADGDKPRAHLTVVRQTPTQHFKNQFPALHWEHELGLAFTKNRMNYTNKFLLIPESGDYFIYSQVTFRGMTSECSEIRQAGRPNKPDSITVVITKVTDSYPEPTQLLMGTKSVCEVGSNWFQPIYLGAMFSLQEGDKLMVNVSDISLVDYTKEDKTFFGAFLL
Put plainly: flow cytometry, HEK293 cells transfected with human TL1A. The protocol: All the Fab variants were tested for binding to membrane-associated human TL1A. For these studies a HEK293 cell line that had been transfected with human TL1A was used. The 293 cells expressing membrane bound human TL1A were maintained in DMEM containing L-glutamine, glucose, sodium pyruvate, and phenol red (ThermoFisher cat #11995-065) plus 10% fetal bovine serum, 1X penicillin-streptomycin (Fisher cat #15140122) and 2 μg/ml puromycin (Gibco cat #A11138-03) in a 37° C. incubator with 5% CO2. Three days prior to the assay, a T-75 flask was seeded with 3×10⁶ cells so that the flask was 90-95% confluent on the day of the assay. The media was aspirated and the cell monolayer was gently washed with 5 ml PBS. Adherent cells were removed by repeatedly pipetting 10 ml ice cold 1% BSA/PBS against the monolayer. The cells were counted and 5×10⁵ were aliquoted for each sample to be analyzed. The cells were collected by centrifuging at 300× g at 4° C. for 5 minutes and the wash was discarded. The cells were resuspended in 100 μl Fab or IgG diluted in 1% BSA/PBS and placed on ice for 30 min. Next, the cells were washed with 1 ml 1% BSA/PBS and collected by centrifuging at 300× g at 4° C. for 5 min. The wash was discarded and 100 μl secondary goat F (ab′) 2 anti-human kappa FITC (Southern Biotech cat #2062-02) or goat F (ab′) 2 anti-human IgG PE (Southern Biotech cat #2043-09) conjugate, diluted 1:200 in BSA/PBS was added. Cells were placed on ice for 30 min. Finally, the cells were washed with 1 ml BSA/PBS, collected by centrifuging at 300× g at 4° C. for 5 min. The wash was removed and the cells were resuspended in 500 μl 1% BSA/PBS. One drop of Sytox AADvanced ReadyFlow Reagent (ThermoFisher cat #R37173) was added per sample and the samples were analyzed on the Attune NXT Flow Cytometer (ThermoFisher).
Turning to B1, the binding result is “binds”.

As to B2, the binding result is listed as “binds”.

On to B3, for which the binding result is on record as “binds”.

On to B4, for which the binding result is reported as “binds”.

As for B5, the binding result is on record as “binds”.

Consider B6, for which the binding result is reported as “binds”.

For the molecule B7, the binding result is “binds”.

For B8, the binding result is reported as “binds”.

For B9, the binding result was “binds”.

The next experiment addresses LIGHT/TNFSF14 (R&D Systems, cat. no. 664-LI/CF) (UniProt O43557 74-240). Briefly: ELISA, antigen coated at 1 µg/ml, Fab titrated. The protocol:
(§1) Next, all the Fab variants were characterized for their selectivity for human TL1A relative to other TNFSF members TRAIL, LIGHT and Fas. […] The plate was washed 3 times with PBS-T and blocked with 100 μl of 1% BSA/PBS. The block was discarded and the Fab variants or control antibodies (Fas/TNFSF6, R&D Systems, cat. no. AF126; TRAIL/TNFSF10, R&D Systems, cat. no. AF375; LIGHT/TNFSF14, R&D Systems, cat. no. AF664) were titrated in 50 μl 1% BSA/PBS and incubated for 1 h at 25° C. The plate was washed 3 times with PBS-T and secondary HRP-conjugated antibody (diluted 5,000-fold in 1% BSA/PBS) was added for 1 h at 25° C. The plate was washed 3 times with PBS-T and developed.
A general note: In an ELISA, binding on a coated surface is turned into a signal by an enzyme label.
As for B1, the binding result is on record as “no binding”.

In the case of B2, the binding result is recorded as “no binding”.

Consider B3, for which the binding result is “no binding”.

On to B4, for which the binding result is listed as “no binding”.

B5: the binding result is listed as “no binding”.

As to B6, the binding result is “no binding”.

B7: the binding result is “no binding”.

For B8, the binding result is “no binding”.

In the case of B9, the binding result is “no binding”.

In a further experiment the target is TRAIL/TNFSF10 (R&D Systems, cat. no. 375-TL/CF) (UniProt P50591 114-281). Put plainly: ELISA, antigen coated at 1 µg/ml, Fab titrated. The protocol:
as §1
For the molecule B1, the binding result is “no binding”.

As for B2, the binding result is listed as “no binding”.

With B3, the binding result is given as “no binding”.

With B4, the binding result is “no binding”.

In the case of B5, the binding result was “no binding”.

On to B6, for which the binding result was “no binding”.

For B7, the binding result is “no binding”.

Consider B8, for which the binding result is “no binding”.

B9: the binding result is on record as “no binding”.

Another experiment deals with T2, Fas/TNFSF6 (R&D Systems, cat. no. 126-FL/CF) (UniProt P48023 134-281).
T2 sequence (looked up): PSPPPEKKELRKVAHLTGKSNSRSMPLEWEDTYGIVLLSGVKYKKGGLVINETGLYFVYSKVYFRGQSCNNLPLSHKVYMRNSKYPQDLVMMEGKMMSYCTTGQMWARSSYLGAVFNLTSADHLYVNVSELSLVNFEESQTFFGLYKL
Put plainly: ELISA, antigen coated at 1 µg/ml, Fab titrated. The protocol: as §1
Consider B1, for which the binding result is reported as “no binding”.

For B2, the binding result was “no binding”.

With B3, the binding result is “no binding”.

Turning to B4, the binding result is on record as “no binding”.

Take B5: the binding result was “no binding”.

As to B6, the binding result was “no binding”.

For B7, the binding result is recorded as “no binding”.

Take B8: the binding result is on record as “no binding”.

For B9, the binding result is given as “no binding”.

For a further experiment, the target named is T3, human TL1A (Fitzgerald, Prod. #30R-AT070) (human, UniProt O95150 72-251, limits assumed, biotinylated with EZ-Link Sulfo-NHS-LC-Biotin where used as soluble antigen).
T3 construct: also called TNFSF15; biotinylated human TL1A
T3 sequence (looked up): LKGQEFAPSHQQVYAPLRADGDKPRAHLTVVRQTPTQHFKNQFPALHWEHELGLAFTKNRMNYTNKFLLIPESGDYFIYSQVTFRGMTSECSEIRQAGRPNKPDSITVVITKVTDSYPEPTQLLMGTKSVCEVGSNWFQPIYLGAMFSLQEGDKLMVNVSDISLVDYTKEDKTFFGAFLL
Put plainly: two ELISA formats: Fab on coated TL1A; captured Fab with biotinylated TL1A. The protocol: Fabs with the CDRs shown in Tables 19 to 22 were tested for binding to human TL1A in multiple formats. Next, uniform (saturating) quantities of soluble Fab variants were captured on the surface of an ELISA plate and soluble, biotinylated human TL1A was titrated as shown in FIGS. 10 to 13.
B1: the binding result was “binds”.

On to B2, for which the binding result is given as “binds”.

Regarding B3, the binding result is on record as “binds”.

Regarding B4, the binding result is on record as “binds”.

As to B5, the binding result is given as “binds”.

Take B6: the binding result is “binds”.

With B7, the binding result is recorded as “binds”.

As for B8, the binding result is given as “binds”.

B9: the binding result is “binds”.

A further experiment concerns the target T3, human TL1A (Fitzgerald, Prod. …). Briefly: capture lift screen and Fab ELISA on coated TL1A.
As for B10, the binding result is reported as “binds”.

For the molecule B11, the binding result is on record as “binds”.

Consider B12, for which the binding result is “binds”.

Regarding B13, the binding result is “binds”.

As to B14, the binding result is “binds”.

For B15, the binding result is on record as “binds”.

In the case of B16, the binding result was “binds”.

B17: the binding result is given as “binds”.

Regarding B18, the binding result is given as “binds”.
